Experiment [1] addresses FLAG-tagged human BAFF (human) (UniProt Q9Y275). As to the kind of experiment: KinExA.
The target is the same in experiment [2]. Nature of the experiment: BIACORE SPR; Table 3 experiment (BAv8-10 derivative series), control run. Background: SPR reads the build-up and loss of mass on a sensor chip optically.
Experiment [3] has the same target. As to the kind of experiment: KinExA. The source holds these as a separate data set.
Experiment [4] has as its target FLAG-tagged recombinant human APRIL (human) (UniProt O75888). As to the kind of experiment: KinExA. Background: Kinetic exclusion samples the free partner from a solution-phase mixture.
Experiment [5] deals with FLAG-tagged cynomolgous APRIL (cynomolgus monkey). As to the kind of experiment: BIACORE SPR.
The target in experiment [6] is FLAG-tagged human BAFF (human) (UniProt Q9Y275). As to the kind of experiment: BIACORE SPR.
Experiment [7] deals with FLAG-tagged murine megaAPRIL (mouse) (UniProt Q9D777). As to the kind of experiment: BIACORE SPR.
The target of experiment [8] is FLAG-tagged cynomolgous APRIL (cynomolgus monkey). As to the kind of experiment: BIACORE SPR. The source holds these as a separate data set.
For experiment [9], the target named is FLAG-tagged human BAFF (human) (UniProt Q9Y275). As to the kind of experiment: BIACORE SPR. This is another data set of the same source.
Experiment [10] addresses 6HIS-tagged murine BAFF (mouse) (UniProt Q9WU72). As to the kind of experiment: BIACORE SPR.
The target in experiment [11] is soluble huBAFF (Example 12) (human) (UniProt Q9Y275).
For another experiment, the target named is membrane-huBAFF (human) (UniProt Q9Y275).
The target of experiment [12] is murine APRIL (Examples 22-23) (mouse) (UniProt Q9D777). As to the kind of experiment: colorimetric ELISA, inhibition curve (450 nm against logM of the fusion protein) for mouse APRIL; the partner on the plate not given.
The target in experiment [13] is syndecan-2. Nature of the experiment: colorimetric ELISA, binding curve (450 nm against LogM) on syndecan-2; curve rises to about 2.4 at LogM about -6.7, no plateau. In general terms: ELISA stands for enzyme-linked immunosorbent assay.
For experiment [14], the target named is human APRIL (Examples 21-23) (human) (UniProt O75888). Nature of the experiment: SPR (Carterra LSA, HC30M chip).
Experiment [15] concerns the target murine BAFF (Examples 22-23) (mouse) (UniProt Q9WU72). As to the kind of experiment: SPR (Carterra LSA, HC30M chip).
Experiment [16] has as its target human BAFF (Examples 21-23) (human) (UniProt Q9Y275). As to the kind of experiment: SPR (Carterra LSA, HC30M chip).
The target in experiment [17] is murine BAFF (Examples 22-23) (mouse) (UniProt Q9WU72). Nature of the experiment: colorimetric ELISA, inhibition curve (450 nm against logM of the fusion protein) for mouse BAFF; the partner on the plate not given.
The target of experiment [18] is human APRIL (Examples 21-23) (human) (UniProt O75888). As to the kind of experiment: colorimetric ELISA, inhibition curve (450 nm against LogM of the fusion protein) for human APRIL; the partner on the plate not given.
Experiment [19] has as its target T1, syndecan-1.
T1 sequence (P18827 whole entry, species assumed, looked up): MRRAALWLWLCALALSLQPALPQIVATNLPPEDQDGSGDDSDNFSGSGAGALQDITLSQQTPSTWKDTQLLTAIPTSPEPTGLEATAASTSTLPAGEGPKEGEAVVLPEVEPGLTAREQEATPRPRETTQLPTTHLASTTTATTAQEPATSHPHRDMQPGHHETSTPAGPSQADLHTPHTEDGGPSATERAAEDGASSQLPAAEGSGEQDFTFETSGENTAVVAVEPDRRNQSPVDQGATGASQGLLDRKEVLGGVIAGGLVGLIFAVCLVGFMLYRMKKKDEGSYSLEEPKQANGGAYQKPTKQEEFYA
As to the kind of experiment: colorimetric ELISA, binding curve (450 nm against LogM) on syndecan-1; curve rises to about 1.8 at LogM about -6.7, no plateau.

The target in experiment [20] is human BAFF (Examples 21-23) (human) (UniProt Q9Y275). As to the kind of experiment: colorimetric ELISA, inhibition curve (450 nm against LogM of the fusion protein) for human BAFF; the partner on the plate not given.
Experiment [21] concerns the target human APRIL (Acros Biosystems) (human) (UniProt O75888). As to the kind of experiment: cell-based or functional assay.
In experiment [22] the target is human BAFF (Acros Biosystems) (human) (UniProt Q9Y275). As to the kind of experiment: cell-based or functional assay.
In experiment [23] the target is human BAFF-60mer (Adipogen) (human) (UniProt Q9Y275). Nature of the experiment: cell-based or functional assay.
Experiment [24] deals with syndecan-2. As to the kind of experiment: colorimetric ELISA, binding curve (450 nm against LogM) on syndecan-2; curve rises to about 1.1 at LogM about -6.7, no plateau.
Experiment [25] deals with murine APRIL (Examples 22-23) (mouse) (UniProt Q9D777). Nature of the experiment: SPR (Carterra LSA, HC30M chip).
Experiment [26] has as its target human APRIL (Examples 21-23) (human) (UniProt O75888). Nature of the experiment: assay not given (Example 21).
Experiment [27] concerns the target human BAFF (Examples 21-23) (human) (UniProt Q9Y275). Nature of the experiment: assay not given (Example 21).
Experiment [28] addresses T1, syndecan-1. As to the kind of experiment: colorimetric ELISA, binding curve (450 nm against LogM) on syndecan-1; curve rises to about 0.7 at LogM about -6.7, no plateau.

A word on the Kd: it is the concentration at which binding is half-saturated. As usually defined, the IC50 is the concentration at which inhibition is half-maximal. The term EC50 denotes the midpoint of the concentration-response curve. A high value points to lower potency in that assay.

Like-named read-outs stand apart in the source and are kept apart here.

FLAG-tagged cynomolgous APRIL (cynomolgus monkey), sequence (A0ACM8 entry or part of it limits assumed): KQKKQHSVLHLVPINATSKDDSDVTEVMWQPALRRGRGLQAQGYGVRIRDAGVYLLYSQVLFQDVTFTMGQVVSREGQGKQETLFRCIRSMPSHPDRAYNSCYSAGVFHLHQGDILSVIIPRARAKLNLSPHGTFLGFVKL
human APRIL (Acros Biosystems) (human), sequence (O75888 115-250 limits assumed): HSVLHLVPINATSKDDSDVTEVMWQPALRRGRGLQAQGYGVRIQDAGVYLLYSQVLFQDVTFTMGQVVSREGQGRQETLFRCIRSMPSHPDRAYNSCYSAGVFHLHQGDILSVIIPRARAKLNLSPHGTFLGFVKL
murine BAFF (Examples 22-23) (mouse), sequence (Q9WU72 127-309 limits assumed): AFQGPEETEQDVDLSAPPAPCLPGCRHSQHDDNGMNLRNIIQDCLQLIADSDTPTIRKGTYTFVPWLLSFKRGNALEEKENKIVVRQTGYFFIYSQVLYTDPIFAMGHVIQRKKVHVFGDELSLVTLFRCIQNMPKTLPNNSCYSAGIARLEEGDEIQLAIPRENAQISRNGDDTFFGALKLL
FLAG-tagged recombinant human APRIL (human), sequence (O75888 105-250 limits assumed): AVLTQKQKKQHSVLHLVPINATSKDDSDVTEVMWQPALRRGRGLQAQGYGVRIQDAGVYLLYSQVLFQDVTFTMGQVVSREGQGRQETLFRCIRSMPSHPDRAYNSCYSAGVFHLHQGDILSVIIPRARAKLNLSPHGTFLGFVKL
human APRIL (Examples 21-23) (human), sequence (O75888 105-250 limits assumed): as above
RC18 (Telitacicept) (Fc fusion), sequence (chain): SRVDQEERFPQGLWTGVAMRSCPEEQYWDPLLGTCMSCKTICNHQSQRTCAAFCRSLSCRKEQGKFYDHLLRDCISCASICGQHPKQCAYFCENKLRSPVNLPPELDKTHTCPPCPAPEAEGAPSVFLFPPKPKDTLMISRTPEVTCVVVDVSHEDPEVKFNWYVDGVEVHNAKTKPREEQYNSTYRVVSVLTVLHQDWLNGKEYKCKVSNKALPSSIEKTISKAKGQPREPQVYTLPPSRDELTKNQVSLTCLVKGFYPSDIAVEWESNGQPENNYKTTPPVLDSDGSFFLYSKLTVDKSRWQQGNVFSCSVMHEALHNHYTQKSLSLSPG
murine APRIL (Examples 22-23) (mouse), sequence (Q9D777 96-241 limits assumed): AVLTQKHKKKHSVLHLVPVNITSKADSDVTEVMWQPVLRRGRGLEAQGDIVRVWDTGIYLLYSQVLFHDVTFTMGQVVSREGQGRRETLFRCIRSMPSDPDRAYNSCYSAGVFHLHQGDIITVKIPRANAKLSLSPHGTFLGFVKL
6HIS-tagged murine BAFF (mouse), sequence (Q9WU72 127-309 limits assumed): as the sequence (Q9WU72 127-309 limits assumed) above
syndecan-2, sequence (P34741 whole entry): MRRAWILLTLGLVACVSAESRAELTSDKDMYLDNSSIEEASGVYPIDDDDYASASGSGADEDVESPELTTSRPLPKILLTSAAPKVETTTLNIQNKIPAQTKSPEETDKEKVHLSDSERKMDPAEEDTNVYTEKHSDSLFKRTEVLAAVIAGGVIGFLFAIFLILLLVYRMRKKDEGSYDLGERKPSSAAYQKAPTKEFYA

“[S40G]huBCMA ECD-Ig fusion protein (from UniProt Q02223 5-54) (Fc fusion)”: the Kd in experiment [1] was found to be 0.226 nM; in experiment [2], 0.173 nM; in experiment [3], 0.226 nM; in [4], 0.000159 nM; in experiment [5], 0.057 nM; in experiment [7], 0.0216 nM. In addition, the Kd in [8] came out at 0.0151 nM; in experiment [9] it was 0.121 nM; in experiment [10], 0.0669 nM. In experiment [3], the Selectivity for huBAFF (KD APRIL/KD BAFF) came to 0.0007. Further, the fold improvement over control in [3], in experiment [4], in experiment [5] and in experiment [6] was 1 fold each time. Further, the Selectivity for huAPRIL (KD BAFF/KD APRIL) in experiment [4] was 1420. For the same substance, the fold improvement KD vs control in experiment [8] and in [9] was 1 fold throughout. For the same substance, in experiment [11], the IC50 (read off the curve) (NFkappaB luciferase signal of HEK293-huBCMA reporter cells stimulated with soluble huBAFF) amounted to 2 nM.

In the experiment with membrane-huBAFF (human), “Z-TACI-Ig fusion protein (from UniProt O14836 30-110) (Fc fusion)” registered an IC50 (read off the curve) (NFkappaB luciferase signal of HEK293-huBCMA reporter cells stimulated with HEK-293 cells expressing membrane huBAFF) of 5 nM. The equilibrium dissociation constant (Kd) came out at 0.151 nM in experiment [3]; 0.131 nM in experiment [4]; 0.421 nM in [7]; 1.21 nM in experiment [8]; 0.0745 nM in experiment [9]; 0.229 nM in experiment [10]. This substance also showed a Selectivity for huBAFF (KD APRIL/KD BAFF) in [3] of 0.9. Also, the figures for the fold improvement over control in experiment [3] and in [4] were 1.5 fold and 0.001 fold, respectively. The Selectivity for huAPRIL (KD BAFF/KD APRIL) in experiment [4] was 1.15. Moreover, the fold improvement KD vs control in [8] turned out to be 0.01 fold; in experiment [9] it was 1.6 fold. Besides, the IC50 (read off the curve) (NFkappaB luciferase signal of HEK293-huBCMA reporter cells stimulated with soluble huBAFF) in experiment [11] is 5 nM.

In the case of RC18 (Telitacicept) (Fc fusion), the IC50 in [12] is 236 nM; in experiment [17], 39 nM; in [18], 6.7 nM; in experiment [20], 12.4 nM. For the same substance, the EC50 in the experiment with syndecan-2 [13] was found to be 70 nM; with syndecan-1 [19], 160 nM. For the same substance, the Kd in experiment [14] was 0.082 nM; in experiment [15], 0.0023 nM; in experiment [16], 0.616 nM. Also, in experiment [21], the IC50 for proliferation of stimulated B cells, Donor 1, APRIL + anti-IgM stood at 2.51 nM. The IC50 for proliferation of stimulated B cells, Donor 2, APRIL + anti-IgM in experiment [21] turned out to be 573 pM. The IC50 for proliferation of stimulated B cells, Donor 3, APRIL + anti-IgM in experiment [21] worked out at 4.14 nM. For the same substance, the IC50 for proliferation of stimulated B cells, Donor 1, BAFF + anti-IgM in experiment [22] came to 1.98 nM. In addition, in experiment [22], the IC50 for proliferation of stimulated B cells, Donor 2, BAFF + anti-IgM came out at 0.295 nM. Further, the IC50 for proliferation of stimulated B cells, Donor 3, BAFF + anti-IgM in [22] stood at 1.05 nM. Further, the IC50 for proliferation of stimulated B cells, Donor 1, BAFF-60mer + anti-IgM in experiment [23] turned out to be 2.37 nM. Besides, the IC50 for proliferation of stimulated B cells, Donor 2, BAFF-60mer + anti-IgM in experiment [23] stood at 0.818 nM. Further, the IC50 for proliferation of stimulated B cells, Donor 3, BAFF-60mer + anti-IgM in experiment [23] was found to be 1.97 nM.

In the case of Atacicept (Fc fusion), the EC50 with syndecan-2 [24] amounted to 5400 nM; in the experiment with syndecan-1 [28], 120 nM. The IC50 was 212 nM in [12], 31 nM in [17], 3.6 nM in experiment [18] and 6.8 nM in experiment [20]. Also, the Kd is 0.067 nM in [14]; 0.532 nM in experiment [15]; 0.13 nM in experiment [25]; 0.919 nM in experiment [16]; 0.13 nM in experiment [26]; 0.15 nM in experiment [27]. Further, the IC50 for proliferation of stimulated B cells, Donor 1, APRIL + anti-IgM in experiment [21] is 3 nM. In addition, in experiment [21], the IC50 for proliferation of stimulated B cells, Donor 2, APRIL + anti-IgM was determined as 0.01 pM. In addition, the IC50 for proliferation of stimulated B cells, Donor 3, APRIL + anti-IgM in [21] was found to be 2.15 nM. In addition, the IC50 for proliferation of stimulated B cells, Donor 1, BAFF + anti-IgM in [22] turned out to be 0.64 nM. In addition, the IC50 for proliferation of stimulated B cells, Donor 2, BAFF + anti-IgM in experiment [22] was 0.0985 nM. The IC50 for proliferation of stimulated B cells, Donor 3, BAFF + anti-IgM in experiment [22] worked out at 0.379 nM. Besides, the IC50 for proliferation of stimulated B cells, Donor 1, BAFF-60mer + anti-IgM in experiment [23] stood at 2.06 nM. Further, the IC50 for proliferation of stimulated B cells, Donor 2, BAFF-60mer + anti-IgM in [23] is 0.683 nM. Besides, the IC50 for proliferation of stimulated B cells, Donor 3, BAFF-60mer + anti-IgM in [23] was determined as 1.13 nM.

Values taken from patent US20250042970A1.
